Assay results published in the DeepSol protein solubility set.

Test: soluble on expression in E. coli; label from the status in PepcDB or PDB records

Sequence	soluble on expression in E. coli
MAHHHHHHMGNDEIFEDLFISDTEPEELYEELGPIGVGNYGSVIKARNRQTQAIAAIKLVLLVDKDERDFVQKEISILKKCVHPNIVRYYGAHKSLSKLWIVMEYCEGGSVDMVYKVLRHPLPENLIAYVCRQVLLGLQYLHANRKIHRDIKGGNILLTRDGDVKLADFGVSTELSHSLSRRNTFVGTLLWMSPEAILELDYDEKADLWSLGITLIEMAEGAPPYIDTHPARALFMIPKVDPPTLHDKDRWSPQMALFLKRLLIKDYRLRPTATAMLNDPFVAPEKIGTKEQMKAVIDEVLAKKEAMSPQRLHGETNSSATFVERTSTDTDGEDGVTNDTCTSGRAPTGAKVPANTSPVAMEAIDITGAHLFFHDGTLLPLPMLSTHDIGFDELGLGREGIGPFAKPVPDAESLLVPPEQRSTALHGSGGLAYTMHVTQTLKSMLYYHKQLPFFREVTDTEAIKSKELQLKYGSILKSIYRL	soluble
MAHHHHHHMGPRKSNAFASGKDDGAAAGKVRKVGGNGVGGSSATNSGSHKHGGAAAATMADIYTNEERAFLESQLALFTSGGGGSGGTDFARMTKEQWFAGLPTLVSATEKLLQAAADRYQQTCRERAAAAASVNGAQNAGSLPSADSSGVGKHGTTASSSHANSCTAEGIAPSGVAGSSDHRSTPAGGTPAQFAEENAYIIAQAQQLQWYPFTYQRWVELLLEPGKYHTACNDGGLRGDAIQTSLRRCILVTYPAVEGGDVI	soluble
MAHHHHHHMGRVRHGATICSAVSDATAGKQKSACVTDVEEIPTLSFLSSKSILSETVDRTIEVCDALLNEIPKAKSIKEKHDLIDSTSNVLCLLLDPCEFVRQVHPDAEYKQHASYAFQKGYEYMSKVNSRRDLYDVVLQLDSTEGHKELSSEEIKNVAQLRRDMESNGIHLPDKLREKVTEMNIEKEELAMRFLTEQGSKNPFATLRYLLQCRYELSQLLGFESFAEQQLRGTMLENQQRVWHFLCGIAHKYRREAEKEMDIIRSNVGEVRNRQNITDDVRARVAHSLRRDAEPETAAEYFSVANCIRGIQCLCLEVFGVRLEEVQFDKDEIFNNDAKKYHVYDENKAFLGVIVLDLYASEMKYCQAGHLTLQLGCIPHQEALAKVGLKLPKRQYPVVVLTCNVGACSPVQRLPNGRFDDESTLMHPNEVTTVFHEFGHAMHTIFGQTKVQNLAGTRASIDFVETFSQLFEQFLTSHEFLQLWAHRISTREPISFDMVMKRNAAADMFKHLDMMDQVVLSAVDQTLHGPQPYTVYFPRGDQGNLGKRTLGDIGDYGRGTYNLAKVLIDICTPLSIVTPTETGVLGTLSFEHLSGYPAGYYGYLYSLSIARRIWAKKFMKDPLNRDAGRELVQKVMRHGAACNPVDVIENYLEDKLDEIDIWV	not soluble
MAHHHHHHMGTLEAQTQGPGSMDEVLLVKKLVEDAIVPTRGSKCAAGIDLYSNTNFIIQPHERFLVSTGVSVQIPHQCYGRIAPRSSLALKYGIDVGAGVIDEDYRGEIKVILFNHSNEIFNGRKGDRIAQLIIERISYCRISEVKELNTTDRGTNGFGSTGK	soluble
MAHHHHHHMGTLEAQTQGPGSMMAASHDDDTVDGLATAVRGGDRAALPRAITLVESTRPDHREQAQQLLLRLLPDSGNAHRVGITGVPGVGKSTAIEALGMHLIERGHRVAVLAVDPSSTRTGGSILGDKTRMARLAVHPNAYIRPSPTSGTLGGVTRATRETVVLLEAAGFDVILIETVGVGQSEVAVANMVDTFVLLTLARTGDQLQGIKKGVLELADIVVVNKADGEHHKEARLAARELSAAIRLIYPREALWRPPVLTMSAVEGRGLAELWDTVERHRQVLTGAGEFDARRRDQQVDWTWQLVRDAVLDRVWSNPTVRKVRSELERRVRAGELTPALAAQQILEIANLTDR	soluble
MAHHHHHHMGTLEAQTQGPGSMSVMPDHWIKERALKDGMISPFVDHKEGTGVLSYGLSSYGYDARLDNKFKIFANTHSVVVDPKNFSQDSFVDREGDFCIIPPNSFMLAKTVEYFNIPRDVMVVCVGKSTYARCGIVVNVTPLEPGWSGYVTLEFSNTSPLPVKVYAFEGACQFLFFSGKERCSKSYDEAGGKYMGQSDVTLPIIS	soluble
MAHHHHHHMGTLEAQTQGPGSMTAQSGLLQGKRGLILGVANNRSIAWGIAKAAREAGAELAFTYQGDALKKRVEPLAEELGAFVAGHCDVADAASIDAVFETLEKKWGKLDFLVHAIGFSDKDELTGRYIDTSEANFTNTMLISVYSLTAVSRRAEKLMADGGSILTLTYYGAEKVMPNYNVMGVAKAALEASVKYLAVDLGPQNIRVNAISAGPIKTLAASGIGDFRYILKWNEYNAPLRRTVTIDEVGDVGLYFLSDLSRSVTGEVHHADSGYHVIGMKAVDAPDISVVKD	soluble
MAHHHHHHMGYLLEREQQRYSRHESAESATAFFASRGQTIDILGRTDPNQIKGNFFGLELYQDAMKVVMQRYTPEKRLTSADLWQPNALGDAPPPRHTLHRKLDDFLYLIVQEGATGKWTIPHTARKDDESLRMTADRAISSQNSEGLDCYVWSNAPQATVFLKDDNTRLFIYAATYLAGRPQFASFEPKPKDHAWVTRHELLQYSDTFKSAELLKALLDISADGTFEA	not soluble
MAHHHHHHMIGLKSMAGVRDVVRGGSWPARLLDMFTSRAAQESFEFEAVVTDACAAANVPVPSEADLPHARWWKKLCRACQDKAGTTKHGSQLLRSRLTNALTQRLAVEEVYRLNGGEIAKEPAVENPIVIMGLPRSNGHMAAHVLARSGLFLTPRQCDTLSPSLLLDVERRDAFRKKFRGFSYLHPDFLCVRVPQADQVDDDLTLHLMTPQSYAWGLLHGLDEYLLECLEEDQLPVYSEVRRVMELLQWYRKCGHFSEPVTREFNPIDNAMELQAYGTKNVLLRPQWLLYSPFAILSPDAVNTAFPKMKAIWVHRALSQCLPSLCSALCLHNTLYTGKPPSDSQLASMGEKVLGIFGSGTAYAIEYYGKFDQRRMAHWSNRDVKRHATRVATKTLDYFSVELDRYRRMQMISGQTEYVSVSRPLHDAQMPYFCLHDGIIGDVFQDYIYQFAEFAFEKKFGITVKEYTPLAAPADAMAMRGIAHGSSEPRSAPALGAGQPMVGHFQQERRGFR	not soluble
MAHHHHHHMKCVVCDADKAGYRCRACRSAYCSSQCYRKHRMSREEAAAQVANINAATSSFAHLCETVVAAQRPQKELDEKRQRTEAEADVFSDVSREKVAAAGAVHGSENDAPPPSTAPAVETAWKTATGASEASGPACAEPQPSARTEYAGDSDAVYILQEKHLGALAHDPRVRSALRSPSLQKLIKTIDSSRSRLDALEAAQYNNADFKGFCDAVLRVIAEVEGR	soluble
MAHHHHHHMKDIINSDFEDNKDERVIIVDENNEFQELKARKIMRMENLWHRSTSIFVFTKIGEEYFIYVHKRSKVKDYCPSYYSIGFGGVVSENEDMLGNAVKELEEESGIKKSPEQLFDLGVVKCDTECSRSFVGSYVSLTLGKPMPFDGVRPLRIFACSSGNFTLLLIPHAAFFRAVTPSPTGCLHRPRLPDHPPAE	soluble
MAHHHHHHMKGNKGANIAYPDKYHKVTEFFDREYGDLETCTKLNDCQKLLFYALRQQVEHGPCTSGAPFIWQVRERAKHDAWKQLGAMTKFEAMVHFVTHLEECIGGNVDWGEKLRDLNGMRDQQRVGVENGTGESNANEQTERGVSEAHWDADVQAHLQPSAENIEYLAREVMRLRGELQQVRPNRVVPTPIVVPPRKPIDYVSTKNIVPPARTLATVATRTALLNAQTTNNLVERQPQGWGEWFGLI	soluble
MAHHHHHHMKGTLAGYTRGLHGQTKQTALVRVENVNTREDATWYVGKRVCYVYHGKKVKRCVRWSKAPARRSTTRALWGRVTRPHGNAGMMRVKFNGASVPASAIGRRIRVYLYPSQI	soluble
MAHHHHHHMKNALFVNENMTILKIFYKDKLYMIKNKICGYQHDINENLVNNPHLLFLGRQEAWILILKCKEEAILQNCITATRYEEIRESEIERHDCVLGSLRK	not soluble
MAHHHHHHMKPVYRYAMNHEYNINSICPIAYSDQFATADDATVLLWCTEYPDTSIETHDMRSPYEDGPRETICAVRNFPHEPFLFFVATSGGSVRVVDTRQTLRWGDQAAQAFINPPREEDEPFSNVTNSICDCALSPSGRYIAGRDFMSICLWDIRMAGSGGARNAPATPRRQAPAARGGDGNPECSMVRRWALHPHLRDDLDTIYQSNLLFDKFDVQFLSSRQVCTGGFNNTLYTMDVEGTSADAASDIRTFQLLKTEGISEFRRTTVSAHRRGEDRISTGQGLGSRMTLMSRPYMSMSGACGMMVACGQAVLQLSYNGLSK	not soluble
MAHHHHHHMKRPWGESVGTQSNHTRTDGVQEPSASAELAASANDDTQVRSDGRNVRVRSSGSPRTIDTGNGGGSTVVSPQRQLSDQRLPQASSRHELLEGTSEFLLRTEGNIPCSFGNVPKDSIGYESQCCWNLYNNTGTTHYEPPWRTCLAVEKNRENPYYLPWLDSMKIPPLDELLSKVDERKSKAATSGDVDSGTNDSNVKDGSTKHAD	soluble
MAHHHHHHMKRSRFDGKAPSFAPAVTMHPQQQQRIEERGANNRVVVNSPYGCSRARYGWGMPFHTPLLAYVPGCPAIHIGISSLSGVPGRDRRMKTLFAQYAKKFNSLEHCYTFHNMGEETMWKNWRDMCASQLVASSSHSPASLGCVQTSDNGNQKSPPFIFSIKANQYLTHTRMLAIDDKSEEHIMHFFVNRCSILGRHLGPVLLQLPPQFQKNHVNMERIEAVAARIPKAFSVAVEFRHRSWYDEGVYALLRRLGWALVVAHHHDDPTASVHVDTGVDFMYVRLHGPIGLHIGDYGPVILSQWAERVVDYICGGVVSAAAADQSQPMAVNAHGREVYFFFNNSDSHVGGTTSSTVDATFLAQRVGELLAEKSRSCMVADSQSNSCSDVDVVTIISE	soluble
MAHHHHHHMKRTLSLGIEGSANKIGVGVVDQSGTVLSNVRETYITPPGSGFLPRETAIHHSQHVLQVVQRAMHDAAVTPADIDIISYTKGPGMGGPLSVGCTVAKTLSLLWGKPLVGVNHCVGHIEMGRVVTKSENPVVLYVSGGNTQVIAYADHRYRIFGETIDIAVGNCLDRVARLLNISNDPAPGYNIEQKAKKGKCYIRLPYTVKGMDMSFTGILSYIEQLVHHPQFSDSDVREMSKKRHKAAPSLTSMPVPPGETLNTDDICFSLQETIFAMLVEVTERAMSQIKTSDVLIVGGVGCNRRLQEMMQLMAAERGGRCFGMDQRYCIDNGCMIAYAGLLQYLSGSFTTMAEATVTQRFRTDEVYVTWRD	not soluble
MAHHHHHHMKVKKKIVKKINKNSNVKIYKSSKHVNEVNNNTLTNNNEVKQNNEYYESFFIPKNLTEFNFKDNDKQLYYLMSLLNEIHDIFYIMLEQFKRKETNDENRDDQIYNYFLRYPVVRTILTQYRKQVLKGFTFNISLLSDDIKRSDFMDNIVKFGGLINNQDYNHLLTVNTFIENENIKNVSTSNLMWLERALYTWK	not soluble
MAHHHHHHMKYTEITIDDGAYAKIFMHSIKYSCDDVCGILIGKYLSSNEKKKKCLITNYIPLFHTHILSPYLNLAFTLVENYYKDKDERIIGYFHISSDDSKNSDIENIKVCELISEKLIKNYNDAFVCLLEFSKYVNDEDNCLNIFMKNDKSNWEKGNVVISNKNKEFLKKNISNQHYLNIYDFDDHLNSMKCDFMNPDLFNNVS	not soluble
MAHHHHHHMLAAIQGFGTRVAARTAGQALRRGLGVVPLRRCCPFRCASSASLPSDVEVHQGSDDYRHSDDAFTLSTEVLGTAEEKATLDEDEFDELEAASQELHDLCYALIAHLRCADPEANKALFERRVQRAFREPKPEQYRRLLHGHGDRSLRRRNNYRTRKDFQEAHRLYLQWCDKLLLLLTQPVLDRLVKSAGKGHRDLRTDGVHRYRRPLERATWRSFPHRWFKHAPFEVQQLRADIPESAVLNTRFYRDHATLRYLFTLMEPQHAFREKIERRVMDLTQRYDPLRKSIE	not soluble
